This note sets out measurements from article PMC7746762.

The target in the experiment is FliC-NikRC flagellin variant (flagellin with its D3 domain replaced by the C-terminal Ni-binding domain of NikR) (S. typhimurium | E. coli) (UniProt P0A6Z6). Put plainly: dynamic light scattering; purified FliC-NikRC in solution; conditions not shown (Fig. S1 in the SI).

Broadly, the stoichiometry N is the number of molecules, sites or subunits per partner or assembly. “FliC-NikRC flagellin variant (flagellin with its D3 domain replaced by the C-terminal Ni-binding domain of NikR) (from UniProt P0A6Z6 50-133)” displayed a stoichiometry N of 4.
